Test system: MS2 coat protein
Assay: apparent KD of MS2 coat protein; designed switch direction (-1 OFF switch, 1 ON switch): 1; higher = weaker reporter binding
How it was run: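 Designed RNA switches with common flanks were transcribed on Illumina chips by stalled E. coli RNA polymerase and titrated with SNAP-549-labelled MS2 coat protein, from 0.7 or 1.5 nM doubling to 3 µM, in Tris-HCl pH 7.5 buffer with KCl, MgCl2, BSA, DTT, tRNA and Tween-20. Steps lasted 0.8–1.5 h (lowest) to 10–20 min (highest). Titrations ran without input, with 200 uM small-molecule ligand, or with an oligonucleotide input. Normalised cluster fluorescence was curve-fitted, and apparent KD is the per-design median over clusters.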

[1] = input ligand: microRNA oligo, concentration not stated
[2] = Eterna round: R95, input ligand: FMN 200 uM
[3] = Eterna round: R95, input ligand: microRNA oligo, concentration not stated
[4] = Eterna round: R95, input ligand: none

CGGGUGGUUCUAGGAUAUCUAGGAUAUGGACGAGGAUUACCCGAGCAGCAUUAGCGCACCAGAGGAGAGAAGGAGAGUGAUGCG [pwkr ssNG2 2F5 2FMN.16] (Eterna round: R96, puzzle: Same State NG 2)
apparent KD of MS2 coat protein (input ligand: FMN 200 uM): 251 nM | apparent KD of MS2 coat protein [1]: 3.25 nM | apparent KD of MS2 coat protein (input ligand: none): 53.3 nM

GAGUAGUCAAAAGGAUAUUGAUUAUUGUAGGAUCAAGAAGGUUUUAACAUGAGGAUCACCCAUGUAGGACUAUUCCUGUGUAUC [Parity 91 - Jieux - Same State NG 1] (Eterna round: R96, puzzle: Same State NG 1)
apparent KD of MS2 coat protein [1]: 10.8 nM

AAAAAACAUGAGGAUCACCCAUGUAAAAAAAACACAGGAUAUCCCUUUUUUAAAAAAAAAGGAGAAGGGUGAAAAA [Nob's Hobby 7 - Jieux - Same State 1] (Eterna round: R96, puzzle: Same State 1)
apparent KD of MS2 coat protein [1]: 36.4 nM

ACAUGAAAUAGAGGAUAUUUUGUACCUACAUGUGACAUGAGGAUCACCCAUGUGGUAAGUAUGAGAAAGAAGGCUAAGAUAUGU [Equivalence 12 - Jieux - Same State NG 2] (Eterna round: R96, puzzle: Same State NG 2)
apparent KD of MS2 coat protein (input ligand: FMN 200 uM): 18.6 nM | apparent KD of MS2 coat protein [1]: 30.3 nM | apparent KD of MS2 coat protein (input ligand: none): 48.6 nM

AUGUGGAAGCCACAGGAUAUACUAGGGUACACAUGAGGAUCACCCAUGUGCGGCUAAAAGUGCUAGUAGAAGGGUGGUAAAGAAA [Diartire] (puzzle: Same State 2)
apparent KD of MS2 coat protein [2]: 13.8 nM | apparent KD of MS2 coat protein [3]: 12.5 nM | apparent KD of MS2 coat protein [4]: 15 nM

AUUAUACAUGAGGAUCACCCAUGUAAUUAAUUAAUUAAGAUCAAGGAUAUCAGCUCGUUUAGAGCUGAGAAGGUGAUCACAUGU [SSNG3/20-B3] (Eterna round: R96, puzzle: Same State NG 3)
apparent KD of MS2 coat protein [1]: 147 nM

UAAACUUCUUUUAGUGUAAUGCAAGUGAAACAUGAGGAUCACCCAUGUAAAGGAUCGUGAUAUUUUGUUCGUCUUAA [JR_SHM208A_Sub076] (puzzle: Sensor for hsa-mir-208a)
apparent KD of MS2 coat protein [2]: 57.2 nM | apparent KD of MS2 coat protein [3]: 32.5 nM | apparent KD of MS2 coat protein [4]: 83 nM

GGAGCCGGUACUGAGGAUAUUCGUAUUAAAACAUGAGGAUCACCCAUGUAGGCCAGAAGGCCUUGGGAGAAGGCAGAUCGGCUCC [Biseusra - 1] (puzzle: Same State 2)
apparent KD of MS2 coat protein [2]: 13.2 nM | apparent KD of MS2 coat protein [3]: 36 nM | apparent KD of MS2 coat protein [4]: 48.3 nM

AACAAUUUAUCUGAGGAUAUCAUGAAAUAAACAUGAGGAUCACCCAUGUGCAGGAAAACUGCAUAUGAGAAGGCAGAUAGAUUGA [salish99_ss2_r3_023] (puzzle: Same State 2)
apparent KD of MS2 coat protein [2]: 53.5 nM | apparent KD of MS2 coat protein [3]: 821 nM | apparent KD of MS2 coat protein [4]: 1890 nM

CUGUGUUGCGGGCAGGAUAUGUACUUGAGUACAUGAGGAUCACCCAUGUGCGGGUGUUUCACCCGACAGAAGGGCCAAUCGCGAC [JL-ss2-3.23 ViennaUCT mod] (puzzle: Same State 2)
apparent KD of MS2 coat protein [2]: 68.8 nM | apparent KD of MS2 coat protein [3]: 311 nM | apparent KD of MS2 coat protein [4]: 1520 nM

UACAAUCUAUCUGAGGAUAUCAUGCAUUACACAUGAGGAUCACCCAUGUGCAGGAAAACUGCAUAUGAGAAGGCAGAUAGAUUGU [salish99_ss2_r3_066] (Eterna round: R96, puzzle: Same State 2)
apparent KD of MS2 coat protein (input ligand: FMN 200 uM): 15.5 nM | apparent KD of MS2 coat protein [1]: 328 nM | apparent KD of MS2 coat protein (input ligand: none): 411 nM

GUGUGUUGCGGGCAGGAUAUGUACUUGAGUACAUGAGGAUCACCCAUGUGCGCCUGUUUCAGGCGACAGAAGGGCCUAUCGCGAC [JL-ss2-3.26 ViennaUCT mod] (puzzle: Same State 2)
apparent KD of MS2 coat protein [2]: 121 nM | apparent KD of MS2 coat protein [3]: 318 nM | apparent KD of MS2 coat protein [4]: 1340 nM

GAAAUAAUGUAAGGAUAUACAUGAGGAUUUCUCGUAGAAGGUACAAGACAUGAGGAUCACCCAUGUGUCGCUCCGUAGAGCGUA [Mat - Same State NG 1 - JL mod - D14] (Eterna round: R96, puzzle: Same State NG 1)
apparent KD of MS2 coat protein [1]: 125 nM

CUCCCAUGUGCACAGGAUAUGCCGGGAUGCACAUGAGGAUCACCCAUGUAAUCCUGAAAAUAAAAGCAGAAGGGUGAUCAUGGGU [Teriqula] (puzzle: Same State 2)
apparent KD of MS2 coat protein [2]: 7.24 nM | apparent KD of MS2 coat protein [3]: 16.5 nM | apparent KD of MS2 coat protein [4]: 13.2 nM

GAGUUACAUGAGGAUCACCCAUGUUGUUUUGGAUAAGGAUAUAUGGUAGGAAGAGGAAUGAUAGAAGGUAUUAGGG [JR_SS1_Sub063] (puzzle: Same State 1)
apparent KD of MS2 coat protein [3]: 25.3 nM

GCGAAGAGGUAAGGAUAUGCAUGGCGUAGACAUGAGGAUCACCCAUGUAGGAGACGAAUUAGAAGGGAGAAGGUACCAGGACGC [AK SSNG2-V2-17.1] (Eterna round: R96, puzzle: Same State NG 2)
apparent KD of MS2 coat protein (input ligand: FMN 200 uM): 939 nM | apparent KD of MS2 coat protein [1]: 699 nM | apparent KD of MS2 coat protein (input ligand: none): 746 nM

UAACAGUACAAUUUAGAUCUACAUGAGGAUCACCCAUGUACUGAGGAUAUCAGCUCGUGUAGAGCUGAGAAGGCAGAAGAACUA [SSNG3/11-A4] (Eterna round: R96, puzzle: Same State NG 3)
apparent KD of MS2 coat protein (input ligand: FMN 200 uM): 38.1 nM | apparent KD of MS2 coat protein [1]: 93.4 nM | apparent KD of MS2 coat protein (input ligand: none): 173 nM

CUGAGCGAUCAAGGAUAUCACGUCGAAUAGACGUGAGAAGGUGAUCAUAACAUGAGGAUCACCCAUGUAUUACAUGAAGCUCAG [SSNG1/2-A1] (Eterna round: R96, puzzle: Same State NG 1)
apparent KD of MS2 coat protein (input ligand: FMN 200 uM): 231 nM | apparent KD of MS2 coat protein [1]: 536 nM | apparent KD of MS2 coat protein (input ligand: none): 2240 nM

CUCCCUUGGGUAGGAUAUCUAGGAUAUGGGAAAGACUAAGUCUGUAGGUCACCUAACCCAGAUGGAGAGAAGGACCCAACACUC [pwkr ssNG2 2FMN + F9.39] (Eterna round: R96, puzzle: Same State NG 2)
apparent KD of MS2 coat protein (input ligand: FMN 200 uM): 3.66 nM | apparent KD of MS2 coat protein [1]: 33.3 nM | apparent KD of MS2 coat protein (input ligand: none): 15.8 nM

UGGUACAUGGGAGGAUAUGGAGUGAUGACAUGAGGAUCACCCAUGUUAUUUAUGCCGAGAGGCAACUAGAAGGCCCAUGUACCU [JL SSNG1 3.96] (Eterna round: R96, puzzle: Same State NG 2)
apparent KD of MS2 coat protein (input ligand: FMN 200 uM): 16.7 nM | apparent KD of MS2 coat protein [1]: 40.8 nM | apparent KD of MS2 coat protein (input ligand: none): 52 nM

GCUACGGACGUAGGAUAUGUAGGAUAUGGCGAGAGCUAAGCUUGGAAGUCACUUCAGCCAGAAGGACAGAAGGACGCCGUGAGG [pwkr ssNG2 2FMN + F9.17] (Eterna round: R96, puzzle: Same State NG 2)
apparent KD of MS2 coat protein (input ligand: FMN 200 uM): 355 nM | apparent KD of MS2 coat protein [1]: 1.34 nM | apparent KD of MS2 coat protein (input ligand: none): 29.5 nM

GUGGCCCAGGCACAGGAUAUGUUUCUCGUAACAUGAGGAUCACCCAUGUGCCUAUGAGAUUUAAUGCAGAAGGGUGCACGCCACG [Atiinbe] (Eterna round: R96, puzzle: Same State 2)
apparent KD of MS2 coat protein (input ligand: FMN 200 uM): 18.2 nM | apparent KD of MS2 coat protein [1]: 61.3 nM | apparent KD of MS2 coat protein (input ligand: none): 103 nM

GUACAGAUCAGAGGAUAUCACGUCGUUUAGACGUGAGAAGGCUGAUCACACAUGAAUAUUAGUACAUGAGGAUCACCCAUGUAC [SSNG1/15-A3] (Eterna round: R96, puzzle: Same State NG 1)
apparent KD of MS2 coat protein (input ligand: FMN 200 uM): 13.7 nM | apparent KD of MS2 coat protein [1]: 13.4 nM | apparent KD of MS2 coat protein (input ligand: none): 17.5 nM

GCUAGAAUUAAUGCCAACAUGAGGAUCACCCAUGUAUGUUGGCAGGAUAUCGUUUGCUUUGCAAACGAGAAGGGCUAAACUAGC [JL SSNG3 1.03] (Eterna round: R96, puzzle: Same State NG 3)
apparent KD of MS2 coat protein (input ligand: FMN 200 uM): 217 nM | apparent KD of MS2 coat protein [1]: 170 nM | apparent KD of MS2 coat protein (input ligand: none): 217 nM

CAUCAUGCGUCUAAGGAUAUGUCUCACAAGACAUGAGGAUCACCCAUGUAGAAUAAAUAAAUGAUGCAGAAGGUGGAGCGCAUGC [Erzausis] (Eterna round: R96, puzzle: Same State 2)
apparent KD of MS2 coat protein [1]: 253 nM

ACAUGAGACGUAGGAUAUAUUGUACCUACAUGUGACAUGAGGAUCACCCAUGUGGUAAGUAUGACAUAGAAGGACGAGAUAUGU [Equivalance 94 - Jieux - Same State NG 2] (Eterna round: R96, puzzle: Same State NG 2)
apparent KD of MS2 coat protein (input ligand: FMN 200 uM): 48.6 nM | apparent KD of MS2 coat protein [1]: 49.7 nM | apparent KD of MS2 coat protein (input ligand: none): 64.3 nM

AUAAGUUUGAUGCUCGUCCCUCCGUACAGACAUGAGGAUCACCCAUGUAGUCGGGAAGUAGCCCGGCCAGUAUGGCC [Biraza] (puzzle: Sensor for hsa-mir-208a)
apparent KD of MS2 coat protein [2]: 15.9 nM | apparent KD of MS2 coat protein [3]: 12.6 nM | apparent KD of MS2 coat protein [4]: 15 nM

GUGGUCAGACAUGAGGAUCACCCAUGUGGAAUAAAUAAGGAAAAGGAUAUUCAAUAUAGGAUAUAGAAGAAGGUUUGGUUGGUG (Eterna round: R96, puzzle: Same State NG 3)
apparent KD of MS2 coat protein [1]: 73.5 nM

GGAUUGGAGGCAGGAUAUGGGCUCAGAACAUGAGGAUCACCCAUGUAAAACGGCGCGAUGCGCCACCAGAAGGGCCUCCGAUCG [Tiaonbira] (Eterna round: R96, puzzle: Same State NG 2)
apparent KD of MS2 coat protein (input ligand: FMN 200 uM): 12.8 nM | apparent KD of MS2 coat protein [1]: 23.8 nM | apparent KD of MS2 coat protein (input ligand: none): 37.3 nM

GCAGGGCCGGGCCCUGCAGACAUGAGGAUCACCCAUGUAACACAGGAUAUGACUGGGAUACCUGGUUAGAAGGGUGCGAAAGAA [Ustivetice] (Eterna round: R96, puzzle: Same State NG 3)
apparent KD of MS2 coat protein (input ligand: FMN 200 uM): 299 nM | apparent KD of MS2 coat protein [1]: 645 nM | apparent KD of MS2 coat protein (input ligand: none): 57.4 nM

AGCCGAGACUGAGGAUAUAGAAAUCUACAUGAGGAUCACCCAUGUAACAACACGUGGUAGUGAUUCUAGAAGGCGGCUCGGCGC [Omei SS(NG)2 Cv4] (Eterna round: R96, puzzle: Same State NG 2)
apparent KD of MS2 coat protein (input ligand: FMN 200 uM): 113 nM | apparent KD of MS2 coat protein [1]: 279 nM | apparent KD of MS2 coat protein (input ligand: none): 1150 nM

AGUCCAGCCUGAGCUGGACAAAAGCAUGUACAUGAGGAUCACCCAUGUCAUGUACAAGCUUUUUGCUCGUCAAAAUA [Mat - hsa-mir-208a - Mod of JL - D29] (puzzle: Sensor for hsa-mir-208a)
apparent KD of MS2 coat protein [2]: 396 nM | apparent KD of MS2 coat protein [3]: 16.5 nM | apparent KD of MS2 coat protein [4]: 480 nM
